Patent US20230080534A1 (SHANGHAI BIOTROY BIOTECHNIQUE, published 2023)
No end group written: not given here.

Experiments:
[1] = biological target: T1, BSA-conjugated human SEMG2 (497-509) polypeptide (human, also: coupled to BSA, site not given here); assay: ELISA, OD450 against antibody concentration (FIG. 21)
T1 peptide: QIEKLVEGKSQIQ

[2] = biological target: T2, human SEMG2 full-length protein (human, UniProt Q02383 24-582, limits assumed); assay: biolayer interferometry (ForteBio Blitz or Gator)
T2 construct: also called SEMG2 protein; semenogelin 2
T2 sequence: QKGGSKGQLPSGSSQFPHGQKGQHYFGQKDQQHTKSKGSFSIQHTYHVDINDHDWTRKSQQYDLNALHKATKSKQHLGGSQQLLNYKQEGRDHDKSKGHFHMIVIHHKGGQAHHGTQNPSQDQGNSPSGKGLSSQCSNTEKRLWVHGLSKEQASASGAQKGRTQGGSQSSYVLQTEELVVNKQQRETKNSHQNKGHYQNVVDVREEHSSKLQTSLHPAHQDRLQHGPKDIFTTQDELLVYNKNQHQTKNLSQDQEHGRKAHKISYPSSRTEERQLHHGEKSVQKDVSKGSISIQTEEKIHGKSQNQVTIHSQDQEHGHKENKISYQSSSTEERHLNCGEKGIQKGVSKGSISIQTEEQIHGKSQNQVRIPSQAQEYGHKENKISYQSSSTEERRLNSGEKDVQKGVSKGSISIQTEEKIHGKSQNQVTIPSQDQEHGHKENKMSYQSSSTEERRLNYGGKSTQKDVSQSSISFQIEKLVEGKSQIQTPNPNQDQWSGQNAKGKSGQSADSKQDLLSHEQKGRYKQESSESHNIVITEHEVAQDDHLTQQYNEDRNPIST
Summary of the method: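 KD of antibodies binding human SEMG2 measured by biolayer interferometry, with antibody and SEMG2 in SD buffer. KD derived by binding-curve analysis.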

[3] = biological target: T3, SEMG2(497-509) polypeptide QIEKLVEGKSQIQ (human); assay: phage display screening on BSA- and KLH-coupled peptide, ELISA
T3 peptide: QIEKLVEGKSQIQ
Text: Specifically, the preparation of polypeptide antigens and the screening of human natural antibody library were firstly performed. […] ELISA was used to select clones that bind to antigenic epitopes for preliminary screening. Different unique sequences were obtained after sequencing single colonies, sorted according to affinity sorting, and full-length antibodies were constructed from antigen-binding fragments (Fab) with relatively high affinity. The binding ability and blocking function tests were performed after purification, that is, the effect of the antibody on binding between SEMG2 and CD27 was determined by the ELISA experiment.

[4] = biological target: T2, human SEMG2 full-length protein; assay: ELISA on SEMG2; the EC50 table prints no unit, the axis is log (antibody concentration, nM)
[5] = biological target: T2, human SEMG2 full-length protein; assay: ELISA (FIG. 21B-D)
[6] = biological target: T1, BSA-conjugated human SEMG2 (497-509) …; assay: ELISA (FIG. 21B-D)
[7] = biological target: T2, human SEMG2 full-length protein; assay: ELISA on SEMG2; the EC50 table prints no unit, the axis is log (antibody concentration, nM); remark: listed apart in the source
[8] = biological target: T1, BSA-conjugated human SEMG2 (497-509) …; assay: ELISA on BSA-S2 (497-509); the EC50 table prints no unit, the axis is log (antibody concentration, nM)
[9] = biological target: T2, human SEMG2 full-length protein; assay: ELISA, immobilized antigen SEMG2 (1-582)
Text: (§1) To clearly distinguish the binding epitopes of blocking antibodies (i.e., antibodies that can inhibit the binding between SEMG2 and CD27) and non-blocking antibodies, a corresponding ELISA analysis method was established. […] Anti-mouse or anti-rabbit secondary antibodies were then used to detect the corresponding bound antibodies.

[10] = biological target: T4, AIEKLVEGKSQIQ (not fully specified); assay: ELISA, immobilized peptide AIEKLVEGKSQIQ
T4 construct: member of the group m41; the text speaks of glycine substitution, the sheet prints alanine
T4 peptide: AIEKLVEGKSQIQ
Summary of the method: (§2)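 Reported numbers are raw OD₄₅₀ ELISA signals. They reflect how strongly each monoclonal antibody recognized the immobilized peptide, probing the relative role of individual epitope residues.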

[11] = biological target: T5, QAEKLVEGKSQIQ (not fully specified); assay: ELISA, immobilized peptide QAEKLVEGKSQIQ
T5 construct: member of the group m41; the text speaks of glycine substitution, the sheet prints alanine
T5 peptide: QAEKLVEGKSQIQ
Summary of the method: as §2

[12] = biological target: T6, QIAKLVEGKSQIQ (not fully specified); assay: ELISA, immobilized peptide QIAKLVEGKSQIQ
T6 construct: member of the group m41; the text speaks of glycine substitution, the sheet prints alanine
T6 peptide: QIAKLVEGKSQIQ

[13] = biological target: T7, QIEALVEGKSQIQ (not fully specified); assay: ELISA, immobilized peptide QIEALVEGKSQIQ
T7 construct: member of the group m41; the text speaks of glycine substitution, the sheet prints alanine
T7 peptide: QIEALVEGKSQIQ
Summary of the method: as §2

[14] = biological target: T8, QIEKAVEGKSQIQ (not fully specified); assay: ELISA, immobilized peptide QIEKAVEGKSQIQ
T8 construct: alanine at this position
T8 peptide: QIEKAVEGKSQIQ
Summary of the method: as §2

[15] = biological target: T9, QIEKLAEGKSQIQ (not fully specified); assay: ELISA, immobilized peptide QIEKLAEGKSQIQ
T9 construct: member of the group m41; the text speaks of glycine substitution, the sheet prints alanine
T9 peptide: QIEKLAEGKSQIQ
Summary of the method: as §2

[16] = biological target: T10, QIEKLVAGKSQIQ (not fully specified); assay: ELISA, immobilized peptide QIEKLVAGKSQIQ
T10 construct: member of the group m41; the text speaks of glycine substitution, the sheet prints alanine
T10 peptide: QIEKLVAGKSQIQ
Summary of the method: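 Epitope mapping of blocking monoclonal antibodies by ELISA on the immobilized peptide. Bound antibodies detected with anti-mouse or anti-rabbit secondary antibodies, read as OD₄₅₀ absorbance.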

[17] = biological target: T11, QIEKLVEAKSQIQ; assay: ELISA, immobilized peptide QIEKLVEAKSQIQ
T11 construct: member of the group m41; position 504 is glycine in SEMG2 and the sheet prints alanine there
T11 peptide: QIEKLVEAKSQIQ
Summary of the method: as §2

[18] = biological target: T12, QIEKLVEGASQIQ (not fully specified); assay: ELISA, immobilized peptide QIEKLVEGASQIQ
T12 construct: member of the group m41; the text speaks of glycine substitution, the sheet prints alanine
T12 peptide: QIEKLVEGASQIQ
Summary of the method: as §2

[19] = biological target: T13, QIEKLVEGKAQIQ (not fully specified); assay: ELISA, immobilized peptide QIEKLVEGKAQIQ
T13 construct: alanine at this position
T13 peptide: QIEKLVEGKAQIQ
Summary of the method: as §2

[20] = biological target: T14, QIEKLVEGKSAIQ (not fully specified); assay: ELISA, immobilized peptide QIEKLVEGKSAIQ
T14 construct: alanine at this position
T14 peptide: QIEKLVEGKSAIQ
Summary of the method: as §2

[21] = biological target: T15, QIEKLVEGKSQAQ (not fully specified); assay: ELISA, immobilized peptide QIEKLVEGKSQAQ
T15 construct: member of the group m41; the text speaks of glycine substitution, the sheet prints alanine
T15 peptide: QIEKLVEGKSQAQ
Summary of the method: as §2

[22] = biological target: T16, QIEKLVEGKSQIA (not fully specified); assay: ELISA, immobilized peptide QIEKLVEGKSQIA
T16 construct: alanine at this position
T16 peptide: QIEKLVEGKSQIA
Summary of the method: as §2

[23] = biological target: T3, SEMG2(497-509) polypeptide QIEKLVEGKSQIQ; assay: ELISA, immobilized peptide QIEKLVEGKSQIQ
Summary of the method: as §2

[24] = biological target: T17, SEMG2(354-403) fragment (human); assay: ELISA, immobilized antigen SEMG2 (354-403)
T17 peptide: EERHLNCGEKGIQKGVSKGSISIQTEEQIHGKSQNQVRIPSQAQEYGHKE
Text: as §1

[25] = biological target: T18, SEMG2(442-453) fragment (human); assay: ELISA, immobilized antigen SEMG2 (442-453)
T18 peptide: IHGKSQNQVTIP
Text: as §1

[26] = biological target: T3, SEMG2(497-509) polypeptide QIEKLVEGKSQIQ; assay: ELISA, immobilized antigen SEMG2 (497-509)
Text: as §1

[27] = biological target: T19, SEMG2(563-574) fragment (human); assay: ELISA, immobilized antigen SEMG2 (563-574)
T19 peptide: VAQDDHLTQQYN
Text: as §1

[28] = biological target: T1, BSA-conjugated human SEMG2 (497-509) …; assay: ELISA on BSA-SEMG2 (497-509), antibody titrated
[29] = biological target: T2, human SEMG2 full-length protein; assay: ELISA on SEMG2 protein, run beside the humanized antibodies; the EC50 table prints no unit, the axis is log (antibody concentration, nM)
[30] = biological target: T2, human SEMG2 full-length protein; assay: ELISA, plate coated with SEMG2 protein, anti-mouse secondary antibody; the EC50 table prints no unit, the axis is log (antibody concentration, nM)

B1: H88-93 (antibody, V domains shown)
VH: QITLKESGPTLVKPTQTLTLTCNFSGFSLTTSGVGVAWIRQPPGKALEWLALIYWDDDQRYSPSLKSRLSVTKHTSKDQVVLTMTNVGPVDTATYYCAHLSYGPGWGYYMDVWGNGTMVTVSS
VL: EIVLTQSPGTLSLSPGERASLSCRASQSVRNNYLAWYQQKPGQAPRLLIFGASNRATGIPDTFSGSGSGTDFTLTISRLEPEDFAVYYCQQYGHSPITFGQGTRLEIK
notes: Fully human full-length antibody built from a phage Fab
binding result [1]: binds | Kd [2]: 4.6 nM | binding result [3]: binds | EC50 [4]: 0.0636 nM

B2: 96-10R-10 (antibody, V domains shown)
VH: QVQLLESGGGLVQPGGSLRLSCSASGFTFSSRAMHWVRQAPGKGLEYVSAISSNGGSTYYADSVKGRFTISRDNSKNTLYLQMSSLRAEDTAVYYCVIEGGSTGSTTSGAFDIWGQGTMVTVSS
VL: DIQMIQSPPSVSASVGDTVTIACRANQGIDSWLAWYQQKPGRAPKLLIYSASRLQSGVPSRFSGGGSGTDFALTISNLQPEDFATYYCQQALSLPITFGQGTRLEIK
fold higher affinity than the parent antibody (H88-96) [5]: > 10 fold | fold higher affinity than the parent antibody (H88-96) [6]: > 10 fold | EC50 [7]: 0.241 nM | EC50 [8]: 3.36 nM

B3: MM05 (antibody, IgG1, V domains shown)
VH: QVQLQQPGAELVRPGASVKLSCEASGYTFTSYWMNWVKQRPGQGLEWIGMIDPSDSETHYNQMFKDKATLTVDKSSSTAYMQLSSLTSEDSAVYYCARYLGGKEGSFDYWGQGTTLTVSS
VL: DIVMSQSPSSLAVSAGEKVTMSCKSSQSLLNSRTRKNYLAWYQQKPGQSPKLLIYWASTRESGVPDRFTGSGSGTDFTLTISSVQAEDLAVYYCKQSYSLPWTFGGGTKLEIKR
Kd [2]: 5.28 nM | A450 absorbance [9]: 1.17 | OD450 absorbance [10]: 0.638 | OD450 absorbance [11]: 0.796 | OD450 absorbance [12]: 0.728 | OD450 absorbance [13]: 0.726 | OD450 absorbance [14]: 0.259 | OD450 absorbance [15]: 0.558 | OD450 absorbance [16]: 0.615 | OD450 absorbance [17]: 0.723 | OD450 absorbance [18]: 0.852 | OD450 absorbance [19]: 0.168 | OD450 absorbance [20]: 1.26 | OD450 absorbance [21]: 0.868 | OD450 absorbance [22]: 1.21 | OD450 absorbance [23]: 1.27 | A450 absorbance [24]: 0.008 | binding result [24]: no binding | A450 absorbance [25]: 0.009 | binding result [25]: no binding | A450 absorbance [26]: 1.17 | binding result [27]: no binding | EC50 (read off the curve) [28]: ~8 ng/mL | EC50 [29]: 0.147 nM | EC50 [30]: 0.535 nM
